Several values for one entry are separate records, joined by “and”; a condition that tells them apart may be missing. Equal entries are not always repeated.

In general, stoichiometry N refers to the number of molecules, sites or subunits per partner or assembly.

Assay [1] has as its target 40007 (clade CRF01 A-E) gp140 trimer, Strep-tag approach (HIV-1 strain 40007). Put plainly: not stated; trimers purified by the Strep-tag approach; manuscript in preparation.
In assay [2] the target is JRFL foldon-gp140 (uncleaved foldon trimer) (HIV-1 strain JRFL | bacteriophage T4). Nature of the assay: SEC + native gel or EMSA. In general terms: In EMSA bound probe runs differently from free probe, usually more slowly.
Assay [3] has as its target SF162 (clade B) gp140 trimer, Strep-tag approach (HIV-1 strain SF162). Nature of the assay: not stated; trimers purified by the Strep-tag approach; manuscript in preparation.
For assay [4], the target named is Strep-tagged BG505 CR gp140 (uncleaved) (HIV-1 strain BG505). Put plainly: native gel or EMSA.
Assay [5] has as its target Strep-tagged JRFL CP664-gp140 (cleaved trimer) (HIV-1 strain JRFL). Nature of the assay: negative stain EM.
Assay [6] has the same target. Nature of the assay: native gel or EMSA.
Assay [7] shares this target. Put plainly: SEC + native gel or EMSA; Strep-Tactin-purified gp140 on Superdex 200 in 25 mM Tris-HCl pH 8, 150 mM NaCl; fractions on blue native PAGE; 293F- or GnTI−-produced.
In assay [8] the target is Strep-tagged JRFL CR664-gp140 (uncleaved) (HIV-1 strain JRFL). Nature of the assay: negative stain EM.
Assay [9] has the same target. Put plainly: native gel or EMSA.
Assay [10] has the same target. Put plainly: SEC + native gel or EMSA; Strep-Tactin-purified gp140 on Superdex 200 in 25 mM Tris-HCl pH 8, 150 mM NaCl; fractions on blue native PAGE; 293F- or GnTI−-produced.

Consider “40007 (clade CRF01 A-E) gp140 trimer, Strep-tag approach (natural protein)”, for which the stoichiometry N in [1] came to 3.
For “JRFL foldon-gp140 (uncleaved foldon trimer)”, in [2], the stoichiometry N was 3.
“SF162 (clade B) gp140 trimer, Strep-tag approach (natural protein)” had a stoichiometry N in assay [3] of 3.
For the substance “Strep-tagged BG505 CR gp140 (uncleaved) (natural protein)”, the stoichiometry N in [4] was determined as 3.
In the case of “Strep-tagged JRFL CP664-gp140 (cleaved trimer) (complex)”, the stoichiometry N in [5], in [6] and in [7] was 3 throughout. In assay [7], the fold, fraction of gp140 recovered as trimers against uncleaved gp140 is 3 fold and 5 fold.
For the substance “Strep-tagged JRFL CR664-gp140 (uncleaved) (natural protein)”, the stoichiometry N in assay [8] is 3; in assay [9], 2 and 3; in assay [10], 3.

Source of the values: publication PMC4528139.
